# Test results published in PMC6588440 (Free radical biology & medicine, 2019).
# Molecular target: the molecule itself
# Assay: non-reducing SDS-PAGE immunoblot
row,Protein,stoichiometry N
1,"Peroxiredoxin 2 (Prx2) (natural protein, UniProt P32119 1-198, looked up, inter-subunit disulfide (oxidized dimer); reduced thiols alkylated with NEM before lysis) MASGNARIGKPAPDFKATAVVDGAFKEVKLSDYKGKYVVLFFYPLDFTFVCPTEIIAFSNRAEDFRKLGCEVLGVSVDSQFTHLAWINTPRKEGGLGPLNIPLLADVTRRLSEDYGVLKTDEGIAYRGLFIIDGKGVLRQITVNDLPVGRSVDEALRLVQAFQYTDEHGEVCPAGWKPGSDTIKPNVDDSKEYFSKHN",2
2,"Peroxiredoxin 3 (Prx3) (natural protein, UniProt P30048 62-256, looked up, inter-subunit disulfide (oxidized dimer); reduced thiols alkylated with NEM before lysis) APAVTQHAPYFKGTAVVNGEFKDLSLDDFKGKYLVLFFYPLDFTFVCPTEIVAFSDKANEFHDVNCEVVAVSVDSHFSHLAWINTPRKNGGLGHMNIALLSDLTKQISRDYGVLLEGSGLALRGLFIIDPNGVIKHLSVNDLPVGRSVEETLRLVKAFQYVETHGEVCPANWTPDSPTIKPSPAASKEYFQKVNQ",2
3,"Peroxiredoxin 1 (Prx1) (natural protein, UniProt Q06830 1-199, looked up, inter-subunit disulfide (oxidized dimer); reduced thiols alkylated with NEM before lysis) MSSGNAKIGHPAPNFKATAVMPDGQFKDISLSDYKGKYVVFFFYPLDFTFVCPTEIIAFSDRAEEFKKLNCQVIGASVDSHFCHLAWVNTPKKQGGLGPMNIPLVSDPKRTIAQDYGVLKADEGISFRGLFIIDDKGILRQITVNDLPVGRSVDETLRLVQAFQFTDKHGEVCPAGWKPGSDTIKPDVQKSKEYFSKQK",2
